# Results taken from PMC4676782.
# Where two headings read alike, the source gives them in different places.
# B1: Human Carboxylesterase 1 (hCES1): N79Q (protein)
# parent chain: MWLRAFILATLSASAAWGHPSSPPVVDTVHGKVLGKFVSLEGFAQPVAIFLGIPFAKPPLGPLRFTPPQPAEPWSFVKNATSYPPMCTQDPKAGQLLSELFTNRKENIPLKLSEDCLYLNIYTPADLTKKNRLPVMVWIHGGGLMVGAASTYDGLALAAHENVVVVTIQYRLGIWGFFSTGDEHSRGNWGHLDQVAALRWVQDNIASFGGNPGSVTIFGESAGGESVSVLVLSPLAKNLFHRAISESGVALTSVLVKKGDVKPLAEQIAITAGCKTTTSAVMVHCLRQKTEEELLETTLKMKFLSLDLQGDPRESQPLLGTVIDGMLLLKTPEELQAERNFHTVPYMVGINKQEFGWLIPMQLMSYPLSEGQLDQKTAMSLLWKSYPLVCIAKELIPEATEKYLGGTDDTVKKKDLFLDLIADVMFGVPSVIVARNHRDAGAPTYMYEFQYRPSFSSDMKPKTVIGDHGDELFSVFGAPFLKEGASEEEIRLSKMVMKFWANFARNGNPNGEGLPHWPEYNQKEGYLQIGANTQAAQKLKDKEVAFWTNLFAKKAVEKPPQTEHIEL
# Columns and labels:
# [1] = biological target: hCES1 S221A (catalytically inactive mutant) (human) (UniProt P23141); assay: SEC; HiLoad 16/60 Superdex 200, 200 mM NaCl, 20 mM Tris-HCl, pH 7.5; molecular weight estimated from globular protein standards
# [2] = biological target: hCES1 S221A (catalytically inactive mutant) (human) (UniProt P23141); assay: AUC; sedimentation velocity, 20°C, 2, 1.0 and 0.5 mg/mL protein in 20 mM TrisHCl, pH 7.5, 200 mM NaCl, 40,000 rpm; c(S) analysis with SEDFIT
# [3] = biological target: hCES1 N79Q (aglycosylated hCES1) (human) (UniProt P23141); assay: SEC; HiLoad 16/60 Superdex 200, 200 mM NaCl, 20 mM Tris-HCl, pH 7.5; molecular weight estimated from globular protein standards
# [4] = biological target: hCES1 N79Q (aglycosylated hCES1) (human) (UniProt P23141); assay: AUC; sedimentation velocity, 20°C, 2, 1.0 and 0.5 mg/mL protein in 20 mM TrisHCl, pH 7.5, 200 mM NaCl, 40,000 rpm; c(S) analysis with SEDFIT
# [5] = biological target: Human Carboxylesterase 1 (hCES1), wild type, glycosylated (human) (UniProt P23141); assay: SEC; HiLoad 16/60 Superdex 200, 200 mM NaCl, 20 mM Tris-HCl, pH 7.5; molecular weight estimated from globular protein standards
# [6] = biological target: Human Carboxylesterase 1 (hCES1), wild type, glycosylated (human) (UniProt P23141); assay: AUC; sedimentation velocity, 20°C, 2, 1.0 and 0.5 mg/mL protein in 20 mM TrisHCl, pH 7.5, 200 mM NaCl, 40,000 rpm; c(S) analysis with SEDFIT
# [7] = sedimentation velocity analytical ultracentrifugation; details: glycan lost; control: glycosylated hCES1
# [8] = 4-NPA hydrolysis, A405, specific activity; details: glycan lost; control: glycosylated hCES1
# [9] = crystal structure superposition, Cα rmsd; details: glycan lost; control: glycosylated hCES1 structure (5a7f)
# [10] = size exclusion chromatography; details: glycan lost; control: glycosylated hCES1
# [11] = 4-NPA kinetics, allosteric sigmoidal fit; details: glycan lost; control: glycosylated hCES1
# [12] = N-glycosylation at N79
molecule,measurement,setting,value
hCES1 S221A (catalytically inactive mutant) (from UniProt P23141 18-567) (enzyme),stoichiometry N,[1],3
same,stoichiometry N,[2],3
hCES1 N79Q (aglycosylated hCES1) (from UniProt P23141 18-567) (enzyme),stoichiometry N,[3],3
same,stoichiometry N,[4],3
"Human Carboxylesterase 1 (hCES1), wild type, glycosylated (from UniProt P23141 18-567) (enzyme)",stoichiometry N,[5],3
same,stoichiometry N,[6],3
B1,oligomerisation,[7],no change
same,"enzymatic_activity, other: specific activity",[8],"no change, 98 vs 73, The purified aglycosylated enzyme was found to be more active than glycosylated hCES1"
same,"structure or conformation, other: rmsd to control",[9],0.47 Å
same,oligomerisation,[10],no change
same,"enzymatic_activity, other: Hill coefficient",[11],"no change, 1.57 +/- 0.4 vs 1.46 +/- 0.26"
same,"enzymatic_activity, other: Khalf",[11],"no change, 1090 +/- 343.3 vs 1123 +/- 280.2"
same,"enzymatic_activity, other: Vmax",[11],"no change, 10.92 +/- 2.01 vs 9.25 +/- 1.30"
same,enzymatic_activity,[12],"no change, specific activity 73 (hCES1) vs 98 (N79Q) µmol min-1 μg-1; Vmax 9.25 +/- 1.30 vs 10.92 +/- 2.01 μMmin-1; h 1.46 vs 1.57"
same,expression_or_secretion,[12],"no change, 39 mg/L (N79Q, transient HEK293T) vs 64 mg/L (hCES1, stable HEK293 Gnt1-/-)"
same,oligomerisation,[12],"no change, trimer, apparent molecular weight 152 kDa"
same,structure_or_conformation,[12],"no change, rmsd 0.47 Å (vs hCES1) and 0.3 Å (vs S221A) for all Cα atoms"
